Measured values reported in patent US20240182536A1 (MURAL ONCOLOGY, published 2024).
Read-outs that look alike come from different tables or passages of the source.

T1: human IL-18 binding protein (human, UniProt O95998 31-194)
T1 sequence (looked up): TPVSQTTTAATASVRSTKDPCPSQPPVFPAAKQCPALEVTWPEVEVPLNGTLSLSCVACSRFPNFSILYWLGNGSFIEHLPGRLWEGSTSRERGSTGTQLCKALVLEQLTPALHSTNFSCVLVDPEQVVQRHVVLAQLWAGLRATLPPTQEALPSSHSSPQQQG

T2: IL-18 receptors on HEK-Blue IL-18 reporter cells (UniProt Q13478 19-541; O95256 20-599, limits assumed)
T2 sequence (looked up) 1: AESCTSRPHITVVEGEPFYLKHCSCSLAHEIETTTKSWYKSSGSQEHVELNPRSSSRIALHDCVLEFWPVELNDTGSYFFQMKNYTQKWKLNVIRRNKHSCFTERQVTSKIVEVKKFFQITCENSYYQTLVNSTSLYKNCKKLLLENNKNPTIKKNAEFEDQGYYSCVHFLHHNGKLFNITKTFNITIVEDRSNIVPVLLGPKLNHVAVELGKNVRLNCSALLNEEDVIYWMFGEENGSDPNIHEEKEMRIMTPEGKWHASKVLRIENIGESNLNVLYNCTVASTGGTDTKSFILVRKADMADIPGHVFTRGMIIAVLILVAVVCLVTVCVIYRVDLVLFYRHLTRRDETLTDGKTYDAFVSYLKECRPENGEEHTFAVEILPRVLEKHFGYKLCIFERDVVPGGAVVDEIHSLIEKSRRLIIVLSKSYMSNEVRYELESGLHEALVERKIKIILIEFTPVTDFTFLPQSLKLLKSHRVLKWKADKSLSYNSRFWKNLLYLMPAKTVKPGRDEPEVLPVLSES
T2 sequence (looked up) 2: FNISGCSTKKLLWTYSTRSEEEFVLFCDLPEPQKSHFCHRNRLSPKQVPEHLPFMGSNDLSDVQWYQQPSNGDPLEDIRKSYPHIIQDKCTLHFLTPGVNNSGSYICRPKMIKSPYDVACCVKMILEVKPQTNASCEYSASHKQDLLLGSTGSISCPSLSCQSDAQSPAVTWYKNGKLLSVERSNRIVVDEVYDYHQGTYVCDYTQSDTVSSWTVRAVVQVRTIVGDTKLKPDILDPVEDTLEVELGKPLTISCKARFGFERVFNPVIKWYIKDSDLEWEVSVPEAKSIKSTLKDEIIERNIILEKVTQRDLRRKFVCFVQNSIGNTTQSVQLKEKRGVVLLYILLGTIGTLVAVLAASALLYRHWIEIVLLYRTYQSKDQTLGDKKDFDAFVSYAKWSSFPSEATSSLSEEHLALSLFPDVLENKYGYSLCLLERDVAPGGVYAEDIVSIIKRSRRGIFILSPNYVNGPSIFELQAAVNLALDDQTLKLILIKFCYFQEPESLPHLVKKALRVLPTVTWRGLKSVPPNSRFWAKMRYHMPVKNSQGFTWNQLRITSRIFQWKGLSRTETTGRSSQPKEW

T3: IL-18 receptor alpha (UniProt Q13478 19-329, limits assumed)
T3 construct: also called IL-18 Rα; IL-18Rα
T3 sequence (looked up): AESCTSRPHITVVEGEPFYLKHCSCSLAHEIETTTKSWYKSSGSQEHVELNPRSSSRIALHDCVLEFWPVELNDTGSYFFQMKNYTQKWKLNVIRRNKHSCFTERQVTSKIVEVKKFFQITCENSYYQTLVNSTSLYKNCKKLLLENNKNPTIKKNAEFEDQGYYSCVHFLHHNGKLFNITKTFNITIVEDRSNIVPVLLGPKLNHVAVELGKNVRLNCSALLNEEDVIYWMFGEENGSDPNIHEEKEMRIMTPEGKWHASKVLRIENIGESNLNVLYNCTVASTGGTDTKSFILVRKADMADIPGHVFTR

T4: IL-18 receptors on HEK-Blue IL-18 reporter cells (InvivoGen) (UniProt Q13478 19-541; O95256 20-599)
T4 sequence (looked up) 1: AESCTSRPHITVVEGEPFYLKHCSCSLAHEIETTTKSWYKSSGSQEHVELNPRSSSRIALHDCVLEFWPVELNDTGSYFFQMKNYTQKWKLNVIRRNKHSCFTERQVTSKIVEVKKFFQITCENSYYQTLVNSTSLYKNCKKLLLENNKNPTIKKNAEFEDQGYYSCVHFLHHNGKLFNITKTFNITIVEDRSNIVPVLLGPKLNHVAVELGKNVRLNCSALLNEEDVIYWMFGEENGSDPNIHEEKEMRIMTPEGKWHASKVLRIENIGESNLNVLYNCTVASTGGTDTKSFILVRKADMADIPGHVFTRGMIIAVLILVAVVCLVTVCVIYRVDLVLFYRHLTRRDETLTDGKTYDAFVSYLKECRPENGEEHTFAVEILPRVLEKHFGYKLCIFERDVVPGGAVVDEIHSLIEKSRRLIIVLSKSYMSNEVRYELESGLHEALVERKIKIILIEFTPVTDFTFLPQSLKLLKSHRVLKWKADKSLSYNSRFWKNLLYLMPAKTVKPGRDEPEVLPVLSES
T4 sequence (looked up) 2: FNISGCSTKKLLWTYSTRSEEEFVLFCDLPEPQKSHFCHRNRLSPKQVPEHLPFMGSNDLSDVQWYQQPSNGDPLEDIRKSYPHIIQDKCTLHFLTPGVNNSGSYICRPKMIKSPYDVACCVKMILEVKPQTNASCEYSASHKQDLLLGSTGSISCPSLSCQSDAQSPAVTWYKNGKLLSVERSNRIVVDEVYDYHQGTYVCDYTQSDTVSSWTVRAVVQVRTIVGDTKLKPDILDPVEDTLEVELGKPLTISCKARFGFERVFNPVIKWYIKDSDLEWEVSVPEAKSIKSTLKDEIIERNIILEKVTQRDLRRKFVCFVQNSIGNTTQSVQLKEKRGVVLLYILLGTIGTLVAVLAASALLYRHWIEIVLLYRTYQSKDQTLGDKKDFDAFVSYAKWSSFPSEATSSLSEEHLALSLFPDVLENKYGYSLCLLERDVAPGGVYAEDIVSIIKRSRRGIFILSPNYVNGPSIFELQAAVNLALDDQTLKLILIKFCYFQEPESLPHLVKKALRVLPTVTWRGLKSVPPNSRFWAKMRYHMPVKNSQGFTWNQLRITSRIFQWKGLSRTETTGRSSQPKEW

T5: human IL-18 binding protein (IL-18BP) (human, UniProt O95998 31-194)
T5 sequence (looked up): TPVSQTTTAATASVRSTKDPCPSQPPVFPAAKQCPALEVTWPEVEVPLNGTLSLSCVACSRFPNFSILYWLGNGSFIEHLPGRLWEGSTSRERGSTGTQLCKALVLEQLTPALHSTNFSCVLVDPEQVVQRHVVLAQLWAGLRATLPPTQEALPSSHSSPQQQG


Key:
[1] = molecular target: T1, human IL-18 binding protein; experiment: cell-based or functional assay
[2] = molecular target: T2, IL-18 receptors on HEK-Blue IL-18 …; experiment: cell-based or functional assay
[3] = molecular target: T1, human IL-18 binding protein; experiment: cell-based or functional assay; remark: listed apart in the source
[4] = molecular target: T2, IL-18 receptors on HEK-Blue IL-18 …; experiment: cell-based or functional assay; remark: listed apart in the source
IL-18 receptor alpha = molecular target: T3, IL-18 receptor alpha; experiment: Octet BLI
Description: (§1) Octet 96red instrument was used to determine affinities of IL18 proteins to BP or receptors. 5-10 ug/ml analyte proteins were used for loading on Sartorius tips (AHC or SA). […] 120-180 s loading, 200 s association and 800 s dissociation were used for kinetics. 3-7 data points were used to calculate affinities.
Additional IL-18 variants were generated and tested based on the results above with G3 variants, E6 variants, K53 variants, and M60 variants. The new variants were first tested for binding to IL-18Rα and IL-18BP by octet, as described above.

[5] = molecular target: T4, IL-18 receptors on HEK-Blue IL-18 …; experiment: cell-based or functional assay
[6] = molecular target: T5, human IL-18 binding protein (IL-18BP); experiment: cell-based or functional assay
[7] = molecular target: T5, human IL-18 binding protein (IL-18BP); experiment: Octet BLI
Description: as §1
Select G3/K53-substitution containing IL-18 variants and select G3/K53/N91-substitution containing TL-18 variants were tested for activity in the HEK-blue activity assay and for binding affinity to IL-18BP. As shown in the data of Table 15 and Table 16 below, each variant had similar or better activity than WT IL-18, and retained substantial activity in the presence of IL-18BP.

| Binder | HEK-blue EC50 (pM) + 1000 nM BP [1] | HEK-blue EC50 (pM) - BP [2] | HEK-blue EC50 (pM) + 300 nM BP [3] | HEK-blue EC50 (pM) - BP [4] | Kd (IL-18 receptor alpha) | HEK-Blue Ec50 (pM), -IL-18BP [5] | HEK-Blue Ec50 (pM), +IL-18BP (50 nM) [6] | Kd [7] | koff [7] | kon [7] |
| --- | --- | --- | --- | --- | --- | --- | --- | --- | --- | --- |
| human IL-18 variant G3V/K53S/M60K (ligand) YFVKLESKLSVIRNLNDQVLFIDQGNRPLFEDMTDSDMRDNAPRTIFIISMYSDSQPRGKAVTISVKSEKISTLSSENKIISFKEMNPPDNIKDTKSDIIFFQRSVPGHDNKMQFESSSYEGYFLASEKERDLFKLILKKEDELGDRSIMFTVQNED | 2.61 pM | 0.021 pM | 2.18 pM | 2.11 pM | 5310 nM |  |  |  |  |  |
| IL-18 variant G3F, K53S (ligand) YFFKLESKLSVIRNLNDQVLFIDQGNRPLFEDMTDSDMRDNAPRTIFIISMYSDSQPRGMAVTISVKSEKISTLSSENKIISFKEMNPPDNIKDTKSDIIFFQRSVPGHDNKMQFESSSYEGYFLASEKERDLFKLILKKEDELGDRSIMFTVQNED |  |  |  |  |  | 3.39 pM | 5.88 pM | 11.8 nM | 0.0048 s⁻¹ | 408000 M⁻¹ s⁻¹ |
| human IL-18 variant G3T/E6K/K53S/M60K (ligand) YFTKLKSKLSVIRNLNDQVLFIDQGNRPLFEDMTDSDMRDNAPRTIFIISMYSDSQPRGKAVTISVKSEKISTLSSENKIISFKEMNPPDNIKDTKSDIIFFQRSVPGHDNKMQFESSSYEGYFLASEKERDLFKLILKKEDELGDRSIMFTVQNED | 0.231 pM | 0.252 pM | 0.308 pM | 0.33 pM | 536 nM |  |  |  |  |  |
